Test results from PMC6200312, “A Single Tim Translocase in the Mitosomes of Giardia intestinalis Illustrates Convergence of Protein Import Machines in Anaerobic Eukaryotes” (Genome Biology and Evolution, 2018).

Assays:
[1] = molecular target: GiTim17 synthesized in vitro (PURExpress) in lecithin liposomes (Giardia intestinalis); assay: native gel or EMSA; 35S-labelled GiTim17 translated in vitro with lecithin liposomes; pellet washed with 2 M urea in 50 mM sodium phosphate pH 8; Blue Native PAGE with 2% digitonin, 4-16% Bis-Tris gel
[2] = molecular target: the molecule itself; assay: non-reducing SDS-PAGE; GiTim17 in vivo in Giardia; ~40 kDa complex on nonreducing SDS-PAGE, no reducing agent

With “GiTim17 synthesized in vitro (PURExpress) in lecithin liposomes (natural protein)” the stoichiometry N [1] was 2.

B1: Giardia intestinalis Tim17 protein (GiTim17), in vivo in Giardia (natural protein, UniProt D3KGG5 1-180, looked up)
chain: MLRLWQEYVQEDDVLACLSVLDEDCQRAVQVIERLDVEGGTPEMQTHERVCTSFSHGLIRTALRRFPLALSKNLGRVQSMLNAFNHALQETSTESFSHAISSSCGSLVSSLCNNPSAGAAMGALPNLRKSPGAALSALLMGPTIAHLVGSVYSLGLNAYHICKLELRDLRLHRAEMDKKA
notes: Tim17 family protein of Giardia intestinalis, GL50803_10452, a protein of 180 amino acids, predicted mass 19.4 kDa; also called GL50803_10452
With B1 the “stoichiometry N” value [2] was ~2.
